Measurements from US20090068109A1 (Janssen / Centocor, published 2009).
Residue numbers refer to the chain shown, from its start. One block for each binder: values may come before it.

Assays:
human MCP-1 (human) [1] = molecular target: human MCP-1 (human) (UniProt P13500); assay: BioVeris (IGEN) solution equilibrium titration
human MCP-1 (human) [2] = molecular target: human MCP-1 (human) (UniProt P13500); assay: cell-based or functional assay
human MCP-1 (human) [3] = molecular target: human MCP-1 (human) (UniProt P13500); assay: inhibition of 125I-MCP-1 binding to THP-1 cells (CCR2)
human Eotaxin-3 = molecular target: T1, human Eotaxin-3 (human, UniProt Q9Y258 24-94); assay: Biacore, captured IgG
T1 sequence (looked up): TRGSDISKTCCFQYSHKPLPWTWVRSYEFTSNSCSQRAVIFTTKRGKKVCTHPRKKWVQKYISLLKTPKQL
Description: (§1) Specificity of Optimized Antibodies in Biacore Antibody Capture Mode (CNTO). Specificity evaluation was performed with selected IgGs. In Biacore 100 nM human MCP-1, human MCP-2, 3, 4 and human Eotaxin 1, 2 and 3 were added to captured optimized antibodies.

human Eotaxin-2 = molecular target: T2, human Eotaxin-2 (human, UniProt O00175 27-104, limits assumed); assay: Biacore, captured IgG
T2 sequence (looked up): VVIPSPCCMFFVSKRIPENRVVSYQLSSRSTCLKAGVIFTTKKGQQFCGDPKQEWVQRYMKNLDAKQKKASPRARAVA
Description: as §1

human MCP-2 [4] = molecular target: T3, human MCP-2 (human, UniProt P80075 24-99); assay: Biacore, captured IgG
T3 construct: also called CCL8
T3 sequence (looked up): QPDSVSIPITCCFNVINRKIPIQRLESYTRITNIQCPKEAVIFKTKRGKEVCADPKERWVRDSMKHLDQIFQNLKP
Description: as §1

human MCP-4 = molecular target: T4, human MCP-4 (human, UniProt Q99616 24-98); assay: Biacore, captured IgG
T4 construct: also called CCL13
Description: as §1

human MCP-3 = molecular target: T5, human MCP-3 (human, UniProt P80098 24-99); assay: Biacore, captured IgG
T5 construct: also called CCL7
Description: as §1

human Eotaxin = molecular target: T6, human Eotaxin (human, UniProt P51671 24-97); assay: BioVeris solution equilibrium titration
T6 construct: also called Eotaxin-1; Eotaxin 1
Description: Solution Equilibrium Titration (SET) Method for KD Determination and Cross-Reactivity Studies Using BioVeris. Affinity determination in solution was basically performed as described in the literature (Friguet et al., 1985). In order to improve the sensitivity and accuracy of the SET method, it was transferred from classical ELISA to ECL based BioVeris technology (Haenel et al., 2005, accepted for publication in Analytical Biochemistry). 1 mg/ml goat-anti-human (Fab)₂ or goat-anti-mouse IgG, Fc fragment specific antibodies (Jackson Immuno Research) were labelled with BV-tag™ NHS-Ester (Bioveris Europe, Witney, Oxfordshire, UK) according to manufacturer's instructions. The experiments were carried out in polypropylene microtiter plates and PBS pH 7.4 with 0.5% BSA and 0.02% Tween 20 as assay buffer. Unlabeled antigen was diluted in 4ⁿ series: For human and cyno MCP-1 a concentration range of 10 pM to 40 nM and for cross-reactivity controls (Eotaxin and MCP-2) a concentration range of 40 pM to 160 nM was chosen. Wells without antigen were used to determine Smax values. After addition of 100 pM Fab or IgG (final concentration in 75 μL final volume), the mixture was incubated for 2 hours at RT. Subsequently a mixture of 25 μl Dynabeads (0.4 mg/ml M-280 Streptavidin, DYNAL, Hamburg), coated with 0.25 μg/ml biotinylated MCP-1 (K69) and BV-tag labeled detection antibody in a final dilution of 1:4000 for anti-human Fab or 1:2000 for anti-mouse IgG were added per well. After incubation for 30 min on an Eppendorf shaker (700 rpm) at RT, electrochemiluminescence signals were detected using a M-384 SERIES® Workstation (Bioveris Europe) Data were evaluated with Origin 5.0 (Microcal) software applying customized fitting models (for Fab: Haenel et al., 2005, accepted for publication in Analytical Biochemistry; for IgG: according to Piehler et al., 1997).
Specificity Testing Using BioVeris. Beside the affinity also the specificity, especially the cross-reactivity to Eotaxin and MCP-2, was analyzed in solution equilibrium titration (SET) using BioVeris. No cross-reactivity to human MCP-2 was detectable for any of the selected 16 Fabs and 15 IgGs tested (one of the 16 selected IgGs was not available). As human MCP-1, human MCP-2 binds mainly to the CCR2 receptor, while human Eotaxin predominantly binds to the CCR3 receptor.

human MCP-2 [5] = molecular target: T3, human MCP-2; assay: Biacore, captured Fab
Description: For the specificity analysis of Fabs, surface plasmone resonance was used (Biacore 3000, Uppsala, Sweden) using the capture assay was used. Fabs were captured and the various proteins (MCP-2, -3, -4 and Eotaxin-1, -2 and -3) were used as analytes. CM5 chips (Biacore, Sweden) were coated with 6500-8000 RU anti-F(ab)₂ (Dianova, Affipure F(ab)₂ fragment goat anti-human IgG, F(ab)₂ fragment specific; 10 mM acetate buffer, pH 4.5) on all 4 flow cells, using standard EDC-NHS amine coupling chemistry. The flow cells 2-4 were captured with specific anti-MCP-1 Fabs (20 μl of 500 nM Fab at a flow rate of […], resulted capture density 300-400RU). After capturing of Fabs, the chemokines were injected (20 μl, flow rate 20 μl/min, PBS pH 7.4) at a concentration of 100 nM. Chemokines were stored in small aliquots and only freshly thawed material with maximum 1 freeze thaw cycle was used for the measurements. To avoid a combination of off rates aroused by the off rate of MCP-1, Fab specific interaction and the anti-Fab/Fab interaction, buffer was injected, to determine the dissociation of anti-Fab/Fab interaction. The achieved buffer sensorgram was subtracted from the specific one. The response units were normalized to the amount of capture antibody onto the surface.

human MCP-1 [6] = molecular target: T7, human MCP-1 (human, UniProt P13500 24-99); assay: cell-based or functional assay
human MCP-1 [7] = molecular target: T7, human MCP-1; assay: inhibition of 125I-MCP-1 binding to THP-1 cells (CCR2)
human MCP-1 [8] = molecular target: T7, human MCP-1; assay: Biacore, Fab
cynomolgus monkey MCP-1 = molecular target: T8, cynomolgus monkey MCP-1 (cynomolgus monkey, UniProt P61274 24-99); assay: Biacore, Fab
T8 construct: also called cyno MCP-1; cyno CCL-2
T8 sequence (P61274 24-99 limits assumed): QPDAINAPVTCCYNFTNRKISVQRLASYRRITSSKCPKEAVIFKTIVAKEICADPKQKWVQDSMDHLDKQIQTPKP

T6 sequence (P51671 24-97 limits assumed): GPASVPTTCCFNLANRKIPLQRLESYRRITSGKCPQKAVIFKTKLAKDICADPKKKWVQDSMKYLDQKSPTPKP
Sequence of human MCP-1 (human) (P13500 24-99): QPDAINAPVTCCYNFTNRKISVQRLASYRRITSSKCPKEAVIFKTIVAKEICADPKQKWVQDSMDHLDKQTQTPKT
T7 sequence (P13500 24-99): as above
T4 sequence (Q99616 24-98 limits assumed): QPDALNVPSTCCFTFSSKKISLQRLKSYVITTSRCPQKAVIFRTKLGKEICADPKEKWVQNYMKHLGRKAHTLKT
T5 sequence (P80098 24-99 limits assumed): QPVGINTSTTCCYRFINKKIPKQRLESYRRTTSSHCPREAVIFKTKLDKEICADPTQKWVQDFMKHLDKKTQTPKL

Kd (human MCP-1 (human) [1]): 65 nM
Inhibition of Ca2+ Mobilization IC50 (human MCP-1 (human) [2]): 71.5 nM
IC50 (human MCP-1 (human) [3]): 35.6 nM
B1: C775 Fab (Fab, from another filing, V domains shown)
VH: QVQLKQSGAELVRPGASVKLSCKASGYTFTDYYINWVKQRPGQGLEWIARIYPGTGNTYYNENFKGKATLTAEKSSSTAYMQLSSLTSEDSAVYFCARSGSTVVGNYYGMDYWGQGTSVTVSS
VL: SIVMTQTPKFLLVSAGDRVSITCKASQSVSNDVAWYQQKPGQSPKLLIYYASNRYTGVPDRFTGSGYGTDFTFTISTVQAEDLAVYFCQQDYSSPWTFGGGTKLEIKR

Inhibition of Ca2+ Mobilization IC50 (human MCP-1 (human) [2]): 62.3 nM
IC50 (human MCP-1 (human) [3]): 25.6 nM
B2: C775 IgG (antibody, from another filing, V domains shown)
VH: B1 VH
VL: B1 VL

binding result (human Eotaxin-3): no binding (tested: 100 nM)
binding result (human Eotaxin-2): no binding (tested: 100 nM)
binding result (human MCP-2 [4]): no binding (tested: 100 nM)
binding result (human MCP-4): no binding (tested: 100 nM)
binding result (human MCP-3): no binding (tested: 100 nM)
binding result (human Eotaxin): no binding (tested: 40 pM to 160 nM)
B3: MOR03747 IgG1 (antibody, V domains shown)
VH: QVQLVESGGGLVQPGGSLRLSCAASGFTFRSYGMSWVRQAPGKGLEWVSNIRSDGSYTYYADSVKGRFTISRDNSKNTLYLQMNSLRAEDTAVYYCARFEFTPWTYFDFWGQGTLVTVSS
VL: DIELTQPPSVSVAPGQTARISCSGDNLGKKYVYWYQQKPGQAPVLVIYDDDNRPSGIPERFSGSNSGNTATLTISGTQAEDEADYYCQSYDRFSSTGFGGGTKLTVL
notes: Human IgG1 lambda

binding result (human Eotaxin): no binding (tested: 40 pM to 160 nM)
B4: MOR03747 Fab (Fab, V domains shown)
VH: B3 VH
VL: B3 VL
notes: HuCAL Fab with C-terminal FLAG and 6xHis tags

binding result (human Eotaxin): no binding (tested: 40 pM to 160 nM)
B5: MOR03744 Fab (Fab, V domains shown)
VH: B3 VH
VL: B3 VL with S89T, G97A
notes: as for B4

binding result (human MCP-2 [5]): no binding (tested: 100 nM)
Ca2+ mobilization IC50 (human MCP-1 [6]): 124 nM
IC50 (human MCP-1 [7]): 11 nM
Kd (human MCP-1 [8]): 42 nM
Kd (cynomolgus monkey MCP-1): 54 nM
B6: MOR03548 Fab (Fab, V domains shown)
VH: B3 VH
VL: B3 VL with D91T, R92A, F93Q, T96A, G97S
notes: Parental HuCAL GOLD Fab with C-terminal FLAG and 6xHis tags

binding result (human Eotaxin-3): no binding (tested: 100 nM)
binding result (human Eotaxin-2): no binding (tested: 100 nM)
binding result (human MCP-2 [4]): no binding (tested: 100 nM)
binding result (human MCP-4): no binding (tested: 100 nM)
binding result (human MCP-3): no binding (tested: 100 nM)
binding result (human Eotaxin): no binding (tested: 40 pM to 160 nM)
B7: MOR03744 IgG1 (antibody, V domains shown)
VH: B3 VH
VL: B3 VL with S89T, G97A
notes: Human IgG1 lambda
